# Data from patent US20220332824A1 (published 2022).
# Columns and labels:
# CD47 = CD47 (UniProt Q08722 19-323); assay: FACS
# human PD-1 = human PD-1 (human, UniProt Q15116 25-288); assay: FACS binding, CHO-K1 cells expressing human PD-1
# human PD-1, sequence (Q15116 25-288): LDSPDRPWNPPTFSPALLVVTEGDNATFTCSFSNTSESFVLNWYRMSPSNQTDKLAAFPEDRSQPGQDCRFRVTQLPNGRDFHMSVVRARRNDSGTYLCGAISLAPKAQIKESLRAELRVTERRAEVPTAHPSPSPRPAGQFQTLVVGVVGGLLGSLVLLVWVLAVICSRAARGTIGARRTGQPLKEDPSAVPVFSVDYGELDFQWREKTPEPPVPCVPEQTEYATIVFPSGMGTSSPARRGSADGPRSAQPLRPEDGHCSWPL
# CD47, sequence (Q08722 19-323): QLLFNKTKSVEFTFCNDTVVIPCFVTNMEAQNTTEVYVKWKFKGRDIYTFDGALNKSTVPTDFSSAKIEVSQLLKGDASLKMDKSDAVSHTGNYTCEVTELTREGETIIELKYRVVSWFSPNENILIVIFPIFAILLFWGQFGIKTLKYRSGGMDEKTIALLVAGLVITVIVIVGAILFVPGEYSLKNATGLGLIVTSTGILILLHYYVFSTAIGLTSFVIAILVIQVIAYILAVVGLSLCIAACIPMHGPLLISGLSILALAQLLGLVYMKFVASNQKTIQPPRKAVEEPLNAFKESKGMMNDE
EC50 (CD47),EC50 (human PD-1),Binder
1.46 nM,~4.44 nM,"anti-CD47 monoclonal antibody (heavy chain H0 and light chain L0) (antibody, V domains shown) VH: EVQLVQSGAEVKKPGSSVKVSCKASGYSFTHHWIHWVRQAPGQGLEWMGMIDASDSETRLSQKFKDRVTITADKSTSTAYMELSSLRSEDTAVYYCARLGRYYFDYWGQGTTVTVSS VL: EIVLTQSPATLSLSPGERATLSCRASENVGTYISWYQQKPGQAPRLLIYGASNRYTGIPARFSGSGSGTDFTLTISSLEPEDFAVYYCGESYGHLYTFGGGTKVEIKR"
1.78 nM,2.82 nM,bispecific antibody PD1b-E-HN (bispecific antibody) heavy: not shown light: EIVLTQSPATLSLSPGERATLSCRASENVGTYISWYQQKPGQAPRLLIYGASNRYTGIPARFSGSGSGTDFTLTISSLEPEDFAVYYCGESYGHLYTFGGGTKVEIKRTVAAPSVFIFPPSDEQLKSGTASVVCLLNNFYPREAKVQWKVDNALQSGNSQESVTEQDSKDSTYSLSSTLTLSKADYEKHKVYACEVTHQGLSSPVTKSFNRGEC
0.968 nM,4.75 nM,bispecific antibody PD1a-G15-HC (bispecific antibody) heavy: not shown light: EIVLTQSPATLSLSPGERATLSCRASENVGTYISWYQQKPGQAPRLLIYGASNRYTGIPARFSGSGSGTDFTLTISSLEPEDFAVYYCGESYGHLYTFGGGTKVEIKRTVAAPSVFIFPPSDEQLKSGTASVVCLLNNFYPREAKVQWKVDNALQSGNSQESVTEQDSKDSTYSLSSTLTLSKADYEKHKVYACEVTHQGLSSPVTKSFNRGEC
1.09 nM,2.6 nM,bispecific antibody PD1a-E-HC (bispecific antibody) heavy: not shown light: EIVLTQSPATLSLSPGERATLSCRASENVGTYISWYQQKPGQAPRLLIYGASNRYTGIPARFSGSGSGTDFTLTISSLEPEDFAVYYCGESYGHLYTFGGGTKVEIKRTVAAPSVFIFPPSDEQLKSGTASVVCLLNNFYPREAKVQWKVDNALQSGNSQESVTEQDSKDSTYSLSSTLTLSKADYEKHKVYACEVTHQGLSSPVTKSFNRGEC
0.804 nM,3.25 nM,bispecific antibody PD1b-E-HC (bispecific antibody) heavy: not shown light: EIVLTQSPATLSLSPGERATLSCRASENVGTYISWYQQKPGQAPRLLIYGASNRYTGIPARFSGSGSGTDFTLTISSLEPEDFAVYYCGESYGHLYTFGGGTKVEIKRTVAAPSVFIFPPSDEQLKSGTASVVCLLNNFYPREAKVQWKVDNALQSGNSQESVTEQDSKDSTYSLSSTLTLSKADYEKHKVYACEVTHQGLSSPVTKSFNRGEC
1.41 nM,4.15 nM,bispecific antibody PD1a-E-HN (bispecific antibody) heavy: not shown light: EIVLTQSPATLSLSPGERATLSCRASENVGTYISWYQQKPGQAPRLLIYGASNRYTGIPARFSGSGSGTDFTLTISSLEPEDFAVYYCGESYGHLYTFGGGTKVEIKRTVAAPSVFIFPPSDEQLKSGTASVVCLLNNFYPREAKVQWKVDNALQSGNSQESVTEQDSKDSTYSLSSTLTLSKADYEKHKVYACEVTHQGLSSPVTKSFNRGEC
–,7.74 nM,bispecific antibody PD1a-E-LC (bispecific antibody) heavy: not shown light: EIVLTQSPATLSLSPGERATLSCRASENVGTYISWYQQKPGQAPRLLIYGASNRYTGIPARFSGSGSGTDFTLTISSLEPEDFAVYYCGESYGHLYTFGGGTKVEIKRTVAAPSVFIFPPSDEQLKSGTASVVCLLNNFYPREAKVQWKVDNALQSGNSQESVTEQDSKDSTYSLSSTLTLSKADYEKHKVYACEVTHQGLSSPVTKSFNRGECEPKSSDKTHTSPPSPEVQLVESGGGLVQPGGSLRLSCAVSGNIYNRNFMGWFRQAPGKGREGVSAIYTGTSRTYYADSVKGRFTISRDNAKNTVYLQMNSLRPEDTAVYYCAADLRDGFWDTGVWNTWGQGTLVTVSS
–,2.34 nM,bispecific antibody PD1b-E-LC (bispecific antibody) heavy: not shown light: EIVLTQSPATLSLSPGERATLSCRASENVGTYISWYQQKPGQAPRLLIYGASNRYTGIPARFSGSGSGTDFTLTISSLEPEDFAVYYCGESYGHLYTFGGGTKVEIKRTVAAPSVFIFPPSDEQLKSGTASVVCLLNNFYPREAKVQWKVDNALQSGNSQESVTEQDSKDSTYSLSSTLTLSKADYEKHKVYACEVTHQGLSSPVTKSFNRGECEPKSSDKTHTSPPSPEVQLVESGGGLVQPGGSLRLSCAVSGNIYNRNFMGWFRQAPGKGLEGVSAIYTGTSRTYYADSVKGRFTISRDNSKNTVYLQMNSLRAEDTAVYYCAADLREGFWDTGVWNTWGQGTLVTVSS
–,3.69 nM,bispecific antibody PD1a-E-LN (bispecific antibody) heavy: not shown light: EVQLVESGGGLVQPGGSLRLSCAVSGNIYNRNFMGWFRQAPGKGREGVSAIYTGTSRTYYADSVKGRFTISRDNAKNTVYLQMNSLRPEDTAVYYCAADLRDGFWDTGVWNTWGQGTLVTVSSEPKSSDKTHTSPPSPEIVLTQSPATLSLSPGERATLSCRASENVGTYISWYQQKPGQAPRLLIYGASNRYTGIPARFSGSGSGTDFTLTISSLEPEDFAVYYCGESYGHLYTFGGGTKVEIKRTVAAPSVFIFPPSDEQLKSGTASVVCLLNNFYPREAKVQWKVDNALQSGNSQESVTEQDSKDSTYSLSSTLTLSKADYEKHKVYACEVTHQGLSSPVTKSFNRGEC
–,3.02 nM,bispecific antibody PD1b-E-LN (bispecific antibody) heavy: not shown light: EVQLVESGGGLVQPGGSLRLSCAVSGNIYNRNFMGWFRQAPGKGLEGVSAIYTGTSRTYYADSVKGRFTISRDNSKNTVYLQMNSLRAEDTAVYYCAADLREGFWDTGVWNTWGQGTLVTVSSEPKSSDKTHTSPPSPEIVLTQSPATLSLSPGERATLSCRASENVGTYISWYQQKPGQAPRLLIYGASNRYTGIPARFSGSGSGTDFTLTISSLEPEDFAVYYCGESYGHLYTFGGGTKVEIKRTVAAPSVFIFPPSDEQLKSGTASVVCLLNNFYPREAKVQWKVDNALQSGNSQESVTEQDSKDSTYSLSSTLTLSKADYEKHKVYACEVTHQGLSSPVTKSFNRGEC
